Data reported in patent publication US20220267436A1 (published 2022).

T1: human LAG-3 (human, UniProt P18627 23-525)
T1 chain: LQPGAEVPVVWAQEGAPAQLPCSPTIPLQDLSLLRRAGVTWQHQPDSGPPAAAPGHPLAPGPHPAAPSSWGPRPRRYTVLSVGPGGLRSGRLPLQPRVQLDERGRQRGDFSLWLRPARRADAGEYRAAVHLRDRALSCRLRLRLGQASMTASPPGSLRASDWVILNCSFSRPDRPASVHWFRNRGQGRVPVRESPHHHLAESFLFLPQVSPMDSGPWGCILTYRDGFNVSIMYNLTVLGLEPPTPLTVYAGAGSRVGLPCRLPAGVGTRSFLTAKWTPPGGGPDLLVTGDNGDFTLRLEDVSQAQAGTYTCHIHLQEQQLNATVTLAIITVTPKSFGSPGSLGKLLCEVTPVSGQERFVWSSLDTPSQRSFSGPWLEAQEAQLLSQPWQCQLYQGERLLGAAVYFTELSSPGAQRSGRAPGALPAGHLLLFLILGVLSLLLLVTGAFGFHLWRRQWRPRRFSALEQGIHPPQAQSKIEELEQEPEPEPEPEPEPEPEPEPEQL


What was measured:
[1] = molecular target: T1, human LAG-3; test: flow cytometry, CHO-K1 cells expressing human LAG-3; FIG. 2
[2] = molecular target: human CD47 (human, UniProt Q08722 19-323); test: flow
Sequence of human CD47 (Q08722 19-323): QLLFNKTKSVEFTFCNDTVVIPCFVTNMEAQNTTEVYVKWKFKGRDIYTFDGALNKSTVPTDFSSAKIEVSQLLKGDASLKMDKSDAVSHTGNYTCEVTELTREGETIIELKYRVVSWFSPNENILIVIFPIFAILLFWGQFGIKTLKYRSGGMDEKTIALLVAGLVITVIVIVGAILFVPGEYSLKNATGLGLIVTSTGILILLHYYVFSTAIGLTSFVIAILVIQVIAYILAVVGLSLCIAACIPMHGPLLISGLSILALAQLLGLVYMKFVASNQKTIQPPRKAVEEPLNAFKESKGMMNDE

[3] = molecular target: T1, human LAG-3; test: flow cytometry, CHO-K1 cells expressing human LAG-3; FIG. 1

EC50 [1] | EC50 [2] | EC50 [3] | Binder
0.535 nM |  |  | bispecific antibody LAG3-G15-LN (bispecific antibody) heavy: not shown light: EVQLVESGGGLVQPGGSLRLSCAASGYTVSSYCMGWFRQAPGKGREGVSAIDSDGSVSYADSVKGRFTISKDNSKNTLYLQMNSLRAEDTAVYFCAADLCWVDQDQGEYNTWGQGTLVTVSSGGGGSGGGGSGGGGSEIVLTQSPATLSLSPGERATLSCRASENVGTYISWYQQKPGQAPRLLIYGASNRYTGIPARFSGSGSGTDFTLTISSLEPEDFAVYYCGESYGHLYTFGGGTKVEIKRTVAAPSVFIFPPSDEQLKSGTASVVCLLNNFYPREAKVQWKVDNALQSGNSQESVTEQDSKDSTYSLSSTLTLSKADYEKHKVYACEVTHQGLSSPVTKSFNRGEC
 | 1.17 nM | 0.8 nM | bispecific antibody LAG3-E-HC (bispecific antibody) heavy: not shown light: EIVLTQSPATLSLSPGERATLSCRASENVGTYISWYQQKPGQAPRLLIYGASNRYTGIPARFSGSGSGTDFTLTISSLEPEDFAVYYCGESYGHLYTFGGGTKVEIKRTVAAPSVFIFPPSDEQLKSGTASVVCLLNNFYPREAKVQWKVDNALQSGNSQESVTEQDSKDSTYSLSSTLTLSKADYEKHKVYACEVTHQGLSSPVTKSFNRGEC
 | 0.865 nM | 0.602 nM | bispecific antibody LAG3-G9-HC (bispecific antibody) heavy: not shown light: EIVLTQSPATLSLSPGERATLSCRASENVGTYISWYQQKPGQAPRLLIYGASNRYTGIPARFSGSGSGTDFTLTISSLEPEDFAVYYCGESYGHLYTFGGGTKVEIKRTVAAPSVFIFPPSDEQLKSGTASVVCLLNNFYPREAKVQWKVDNALQSGNSQESVTEQDSKDSTYSLSSTLTLSKADYEKHKVYACEVTHQGLSSPVTKSFNRGEC
 | 3.85 nM | 0.57 nM | bispecific antibody LAG3-G15-HN (bispecific antibody) heavy: not shown light: EIVLTQSPATLSLSPGERATLSCRASENVGTYISWYQQKPGQAPRLLIYGASNRYTGIPARFSGSGSGTDFTLTISSLEPEDFAVYYCGESYGHLYTFGGGTKVEIKRTVAAPSVFIFPPSDEQLKSGTASVVCLLNNFYPREAKVQWKVDNALQSGNSQESVTEQDSKDSTYSLSSTLTLSKADYEKHKVYACEVTHQGLSSPVTKSFNRGEC
 | 0.911 nM | 0.672 nM | bispecific antibody LAG3-G15-HC (bispecific antibody) heavy: not shown light: EIVLTQSPATLSLSPGERATLSCRASENVGTYISWYQQKPGQAPRLLIYGASNRYTGIPARFSGSGSGTDFTLTISSLEPEDFAVYYCGESYGHLYTFGGGTKVEIKRTVAAPSVFIFPPSDEQLKSGTASVVCLLNNFYPREAKVQWKVDNALQSGNSQESVTEQDSKDSTYSLSSTLTLSKADYEKHKVYACEVTHQGLSSPVTKSFNRGEC
 | 3.96 nM | 0.477 nM | bispecific antibody LAG3-G9-HN (bispecific antibody) heavy: not shown light: EIVLTQSPATLSLSPGERATLSCRASENVGTYISWYQQKPGQAPRLLIYGASNRYTGIPARFSGSGSGTDFTLTISSLEPEDFAVYYCGESYGHLYTFGGGTKVEIKRTVAAPSVFIFPPSDEQLKSGTASVVCLLNNFYPREAKVQWKVDNALQSGNSQESVTEQDSKDSTYSLSSTLTLSKADYEKHKVYACEVTHQGLSSPVTKSFNRGEC
 | 4.44 nM | 0.526 nM | bispecific antibody LAG3-E-HN (bispecific antibody) heavy: not shown light: EIVLTQSPATLSLSPGERATLSCRASENVGTYISWYQQKPGQAPRLLIYGASNRYTGIPARFSGSGSGTDFTLTISSLEPEDFAVYYCGESYGHLYTFGGGTKVEIKRTVAAPSVFIFPPSDEQLKSGTASVVCLLNNFYPREAKVQWKVDNALQSGNSQESVTEQDSKDSTYSLSSTLTLSKADYEKHKVYACEVTHQGLSSPVTKSFNRGEC
0.552 nM |  |  | bispecific antibody LAG3-E-LC (bispecific antibody) heavy: not shown light: EIVLTQSPATLSLSPGERATLSCRASENVGTYISWYQQKPGQAPRLLIYGASNRYTGIPARFSGSGSGTDFTLTISSLEPEDFAVYYCGESYGHLYTFGGGTKVEIKRTVAAPSVFIFPPSDEQLKSGTASVVCLLNNFYPREAKVQWKVDNALQSGNSQESVTEQDSKDSTYSLSSTLTLSKADYEKHKVYACEVTHQGLSSPVTKSFNRGECEPKSSDKTHTSPPSPEVQLVESGGGLVQPGGSLRLSCAASGYTVSSYCMGWFRQAPGKGREGVSAIDSDGSVSYADSVKGRFTISKDNSKNTLYLQMNSLRAEDTAVYFCAADLCWVDQDQGEYNTWGQGTLVTVSS
0.448 nM |  |  | bispecific antibody LAG3-E-LN (bispecific antibody) heavy: not shown light: EVQLVESGGGLVQPGGSLRLSCAASGYTVSSYCMGWFRQAPGKGREGVSAIDSDGSVSYADSVKGRFTISKDNSKNTLYLQMNSLRAEDTAVYFCAADLCWVDQDQGEYNTWGQGTLVTVSSEPKSSDKTHTSPPSPEIVLTQSPATLSLSPGERATLSCRASENVGTYISWYQQKPGQAPRLLIYGASNRYTGIPARFSGSGSGTDFTLTISSLEPEDFAVYYCGESYGHLYTFGGGTKVEIKRTVAAPSVFIFPPSDEQLKSGTASVVCLLNNFYPREAKVQWKVDNALQSGNSQESVTEQDSKDSTYSLSSTLTLSKADYEKHKVYACEVTHQGLSSPVTKSFNRGEC
 | 1.01 nM |  | anti-CD47 monoclonal antibody (mAb) (antibody, V domains shown) VH: EVQLVQSGAEVKKPGSSVKVSCKASGYSFTHHWIHWVRQAPGQGLEWMGMIDASDSETRLSQKFKDRVTITADKSTSTAYMELSSLRSEDTAVYYCARLGRYYFDYWGQGTTVTVSS VL: EIVLTQSPATLSLSPGERATLSCRASENVGTYISWYQQKPGQAPRLLIYGASNRYTGIPARFSGSGSGTDFTLTISSLEPEDFAVYYCGESYGHLYTFGGGTKVEIKR
0.322 nM |  |  | bispecific antibody LAG3-G9-LN (bispecific antibody) heavy: not shown light: EVQLVESGGGLVQPGGSLRLSCAASGYTVSSYCMGWFRQAPGKGREGVSAIDSDGSVSYADSVKGRFTISKDNSKNTLYLQMNSLRAEDTAVYFCAADLCWVDQDQGEYNTWGQGTLVTVSSGGGGSGGGSEIVLTQSPATLSLSPGERATLSCRASENVGTYISWYQQKPGQAPRLLIYGASNRYTGIPARFSGSGSGTDFTLTISSLEPEDFAVYYCGESYGHLYTFGGGTKVEIKRTVAAPSVFIFPPSDEQLKSGTASVVCLLNNFYPREAKVQWKVDNALQSGNSQESVTEQDSKDSTYSLSSTLTLSKADYEKHKVYACEVTHQGLSSPVTKSFNRGEC
